Source: US20230357429A1
Where a chain is given by its changes, count along the chain named. Numbers in names are those of the source.

Experiments:
Conditions in all cases: remark: other sources report otherwise
[1] = target: T1, Human TROP2 ECD (31-274 AA), biotinylated (human), P09758; experiment: ELISA, biotinylated TROP2 ECD on neutravidin plate (BLI cell of the same column: low binding); ELISA: no half-maximal signal up to 1000 nM Fab
T1 chain: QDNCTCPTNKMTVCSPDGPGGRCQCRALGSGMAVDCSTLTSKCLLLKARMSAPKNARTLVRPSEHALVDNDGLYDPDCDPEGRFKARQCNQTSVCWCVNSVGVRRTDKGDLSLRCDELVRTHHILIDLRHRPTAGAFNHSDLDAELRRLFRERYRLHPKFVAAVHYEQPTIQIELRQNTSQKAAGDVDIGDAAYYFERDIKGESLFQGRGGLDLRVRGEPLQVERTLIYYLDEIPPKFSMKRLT

[2] = target: T1, Human TROP2 ECD (31-274 AA), …; experiment: ELISA, biotinylated TROP2 ECD on neutravidin plate, Fab titrated
[3] = target: T1, Human TROP2 ECD (31-274 AA), …; experiment: ELISA: biotinylated TROP2 captured on neutravidin plate, Fab titrated, HRP secondary antibody

Measured: EC50

B1: TBD-4 (anti-TROP2 Fab, LC H91A) (Fab)
light: DIQLTQSPSSLSASVGDRVSITCKASQDVSIAVAWYQQKPGKAPKLLIYSASYRYTGVPDRFSGSGSGTDFTLTISSLQPEDFAVYYCQQAYITPLTFGAGTKVEIKRTVAAPSVFIFPPSDEQLKSGTASVVCLLNNFYPREAKVQWKVDNALQSGNSQESVTEQDSKDSTYSLSSTLTLSKADYEKHKVYACEVTHQGLSSPVTKSFNRGEC
heavy: QVQLQQSGSELKKPGASVKVSCKASGYTFTNYGMNWVKQAPGQGLKWMGWINTYTGEPTYTDDFKGRFAFSLDTSVSTAYLQISSLKADDTAVYFCARGGFGSSYWYFDVWGQGSLVTVSSASTKGPSVFPLAPSSKSTSGGTAALGCLVKDYFPEPVTVSWNSGALTSGVHTFPAVLQSSGLYSLSSVVTVPSSSLGTQTYICNVNHKPSNTKVDKKVEPKSC
modifications: here or on the partner: biotinylated (site not stated)
> 1000 nM: [1] | [2] | [3]

B2: TBD-5 (anti-TROP2 Fab, LC Y92A) (Fab)
light: B1 light with A91H, Y92A
heavy: B1 heavy
modifications: here or on the partner: biotinylated (site not stated)
> 1000 nM: [1] | [2] | [3]
